The values that follow come from the nanobody polyreactivity screen of Harvey et al. (2022).

A short description of this data set: yeast display, Sf9 membrane polyspecificity reagent, FACS + sequencing; frameworks hold sequencing errors. A digest of the protocol:
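Sorting gates, low and high (top ~1%), were placed on anti-HA fluorescence to track expression and on streptavidin fluorescence to track reagent binding. A clone's polyreactivity label is taken from the gate it came out of. The reagent was 10% biotinylated, detergent-solubilized Sf9 membrane, applied for 1 hour at 4 °C to galactose-induced yeast display cells.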
With “QVQLVESGGGLVQAGGSLRLSCAASGRTFVTYAMGWYRQAPGKERELVAAISKRGSRTYYADSVKGRFTISRDNAKNTVYLQMNSLKPEDTAVYYCNAYPYRTSYDYWGQGTQVTVSS”, the “polyreactivity (PSR sort gate)” value was “high polyreactivity”. With “QVQLVESGGGLVQAGGRLRISCAASGFTFTRYAMRWYRQAPGKERELVAAISWSGGSTYYADSVKGRFTISRDNAKNTVSFQMNSLKPEDTAVYYCAKRGTVRQGGYGFWGQGTQVSVSS”, the “polyreactivity (PSR sort gate)” value is given as “high polyreactivity”.

“QVQLVESGGGLVQAGGSLRLSCAASGSIFKYYAMGWYRQAPGTERELVAAISTGGTTNYADSVKGRFTISRDNAKNTVYLQMNSLKPEDTAVYYCNRDYLVRSRYKYYYWGQGTQVTVSS”: the “polyreactivity (PSR sort gate)” value is reported as “low polyreactivity”. Turning to “QVQLVESGGGLVQAGGSLRLSCAASGSTFQRYVMGWYRPAPGKERELVAAITRTGASTYYADSVKGRFTISRDYAKNTVDLQMNSRKPEDTAGYYCAARYPLGSYTYDFWGQGTQVTVSS”, the “polyreactivity (PSR sort gate)” value is listed as “high polyreactivity”. For “QVQLVESGGGLVQAGGSLRLSCAASGSTYYYNAMGSYRQAPGKDRELVARISRSGGSTYADSVKGRFTISRDNAKNTVYLQMNSLKPEDTAVYYCNADAYGTPEFTSYAVRYDYWGQGTQVTVSS” the value was “low polyreactivity”; for “QDQLVESGGGLVQAGGSLRLSCAASGLIFGGYDMGWYRQAPGKERELVAAISCDDGDTYYADSVKGRFTISRDNAKNTVYLQMNSLKPEDTAVYYCAAESLSGAHGYWGQGTQVTVSS”, “low polyreactivity”; for “QVQLVESGGGLVQAGVSLRLSCAASGNAMGWYRQAPGKERELVAAITYGGTTTYYADSVKGRFTISRDNAKNTVYLQMNSLKPEDTAVYYCAADFVFVATPLRYDYWGQGTQVTVSS”, “low polyreactivity”. In the case of “QVQLVESGGGLVQAGGSLRLSCAASGSTFAANAMGWYRQAPGKERELFAVIRRGGSTTYADSVKGRFTISRDNAKNTVYLQMNSLKPEDTEVYYCNARVTLGRPLFTYLVRYEYWGQGTQVTVSS” it was “high polyreactivity”; in that of “QVQLVESGGGLVQAGGSLRLSCAASGRTFRINAMGWYRHAPGKERELVAAITRGDTNYADSVKGRFTISRDNAKNTVYLQMNSLKPEDTAVYYCNAELSFRYPVFRELDYWGQGTQVTVSS”, “low polyreactivity”; in that of “QVQLVESGGGLVQAGGSLRLSCAASGRTFFRNVMGWYRQAPGKERELVAGITWTGGTTYYADSVKGRFTISRDNAKNTVYLQMNSLKPEDTAVYYCATRNYAVVPSVRREGYYWGQGTQVTVSS”, “low polyreactivity”. For “QVQLVESGGCLVQAGGSLRISCAASGRIFSRNAMGWYRQAPGKEREWVAAITRSSGTTYYADSVKGRFTISRDNAKNTVYLQMNSLKPEDTAVYYCAAGHTYGGYPRPSDYWGQGTQVTVSS”, the “polyreactivity (PSR sort gate)” value was “low polyreactivity”. Take “QVQLVESVGGLVQAGGSLRLSCAASGGKFISYAMGRYRQAPRKERELVAAITSSGGSTYDADSVKGRFTISRDDAKNTVYLQMNSLKPEDTGVYYCAADHSTVLDVGSWGQGTQVTVSS”: the “polyreactivity (PSR sort gate)” value is “low polyreactivity”. Consider “QVQLVESGGGIVQAGGSLRLSCAASGRIFQRYTMGWYRQAPGKEREFVAAITYSGGSTHYADSVKGRFTISRDNAKNTVYLQMNSLKPEDTAVYYCNADRYYGRGYGYWGQGTQVTVSS”, for which the “polyreactivity (PSR sort gate)” value is “low polyreactivity”. As to “QVQLVESGGGLVQAGGSLRLSCAASGSIFPLYAMGWYRQAPGKERELVADITVSGGSTYYADSVKGRFTISRDNAKNTVYLQMNSLKPEDTAVYYCNADDRSPFPDYWWYPYDYDYWGQGTQVTVSS”, the “polyreactivity (PSR sort gate)” value is “low polyreactivity”. Regarding “QVQLVESGGGLVQAGGILRLSCAASGRIFSRYVMGWYRQAPGKEREFVASITWSGSSTYYADSVKGRFTISRDNAKNTVYLQMNSLKPEDTAVYYCAALGLLSPSPWGTHISEYDSWGQGTQVTVSS”, the “polyreactivity (PSR sort gate)” value is reported as “low polyreactivity”. With “QVQLVESGGGLVQAGGSLRLSCAASGSIFYPYAMGWYRQAPGKERELVAAISSGGRTYYADSVKGRFTISRDNAKNTVYLQMNSLKPEDTAVYYCAARPKAYGRPPGYYWGQGTQVTVSS”, the “polyreactivity (PSR sort gate)” value is “high polyreactivity”.
